Source: patent US11535851B2, “Reagents for treatment of hepatitis B virus (HBV) infection and use thereof” (priority 2016, dated 2022)

B1: shmiR-6: shmiR targeting HBV; RNA SEQ ID NO: 48, encoded by DNA SEQ ID NO: 64 (nucleic acid)
chain: GGUAUAUUGCUGUUGACAGUGAGCGACAGGUCCCCUAGAAGAAGAAACUGUGAAGCAGAUGGGUUUCUUCUUCUAGGGGACCUGCCGCCUACUGCCUCGGACUUCAA
modifications: expressed or natural sequence
B2: shmiR-15: shmiR targeting HBV; RNA SEQ ID NO: 57, encoded by DNA SEQ ID NO: 73 (nucleic acid)
chain: GGUAUAUUGCUGUUGACAGUGAGCGAAGUGGUUCGUAGGGCUUUCCACUGUGAAGCAGAUGGGUGGAAAGCCCUACGAACCACUGCGCCUACUGCCUCGGACUUCAA
modifications: expressed or natural sequence
B3: shmiR-12: shmiR targeting HBV; RNA SEQ ID NO: 54, encoded by DNA SEQ ID NO: 70 (nucleic acid)
chain: GGUAUAUUGCUGUUGACAGUGAGCGAGUCCCGUCGGCGCUGAAUCCACUGUGAAGCAGAUGGGUGGAUUCAGCGCCGACGGGACGCGCCUACUGCCUCGGACUUCAA
modifications: expressed or natural sequence

What was measured:
[1] = system: Luciferase reporter constructs carrying effector or effector complement sequences (HBV transcripts); assay: Dual-luciferase reporter assay (strand preference activity) in HEK293 cells; assay type: cell-based; settings: FIG. 1A; for activity of constructs in luciferase reporter assay: compared directly to corresponding shRNA constructs; for antisense (effector) strand activity (strand preference activity): relative to shRNA expressing counterparts
Experimental: Efficacy of the ddRNAi constructs expressing shmiRs or shRNAs of the disclosure to knockdown HBV transcripts is determined using dual-luciferase reporter assays in HEK293 cells.
Plasmid reporter constructs based on the pGL3 Luciferase Reporter Vector are constructed for effector and effector complement sequences from each of the shmiRs and shRNAs of the disclosure. Luciferase reporter constructs e.g., firefly luciferase reporter constructs, are generated by inserting the respective effector sequence or effector complement sequence of the shmiRs or shRNAs (as appropriate) with 20 bp flanking sequences at each end into the pGL3-control vector (Promega, Madison, Wis.). The inserts are subcloned using FseI and XbaI restriction enzyme sites following the luciferase reporter gene.
The dual-luciferase reporter assays are performed in HEK293 cells (ATCC). The HEK293 cells are cultured in DMEM medium containing 10% fetal bovine serum, 2 mM glutamine, penicillin (100 U/mL), and streptomycin (100 μg/mL) at 37° C. humid incubator with 5% CO2. The HEK293 cell are seeded at a density of 2×10^4 cells per well into 96-well culture plate one day prior to transfection.
ddRNAi expression constructs described in Example 1 (i.e., ddRNAi constructs designated HBV-shmiR1 to HBV-shmiR16, HBV-shmiRx3-v1 and HBV-shmiRx3-v2) are synthesized and inserted into an appropriate plasmid vector e.g., a pSsh vector, optionally with a proximal sequence element 7 (PSE7) for constructs expressing shRNAs.
Expression vectors comprising the ddRNAi expression constructs are co-transfected into HEK293 cells with a Luciferase reporter construct e.g., a firefly luciferase reporter construct, expressing an effector sequence or effector complement sequence of the corresponding shmiR or shRNA (as appropriate) at a ratio of 10:1 (ddRNAi expression construct: Luciferase reporter construct) using 0.3 uL of Lipofectamine 2000 reagent (Life Technologies, Carlsbad, Calif.) according to manufacturer's instructions. Cells are also transfected with 1 ng of a Renilla reporter construct (serving as a transfection control). 48 hour post-transfection, cell lysates are collected and analyzed using Dual Luciferase Reporter Assay System (Promega, Madison, Wis.). The firefly/Renilla activity ratios are determined for each transfection. Percentage inhibition of reporter expression is calculated relative to a negative control e.g., a construct expressing a random non-targeting sequence. The experiment is performed in replicate.
In addition, the three ddRNAi shmiR constructs (i.e., the ddRNAi shmiR constructs expressing shmiR6, shmiR15 and shmiR12 respectively) were compared for strand preference activity relative to their shRNA expressing counterparts.
The influence of addition of an ‘A’ nucleotide at the 3′ end or a ‘G’ nucleotide at the 5′ end of the sense sequence on thermodynamics of the shmiR variant was also assessed. The idea is to allow for the antisense (or effector) strand to be preferentially loaded into the RISC complex for functional RNAi activity.

[2] = system: HBV transcripts at regions corresponding to HBsAg, HBcAg and HbxAg; assay: Inhibition of HBV transcripts in HepG2.2.15 cells transduced with AdV vectors (RT-qPCR, relative to GAPDH mRNA); assay type: cell-based, HBV (serotype ayw, genotype D); settings: HepG2.2.15, MOI of 100, 3, 4, 5 and 6 days after infection; versus corresponding shRNA constructs; FIG. 4
Experimental: Levels of inhibition of HBV transcripts at regions corresponding to HBV antigens HBsAg, HBcAg and HbxAg, relative to levels of GAPDH mRNA, are determined by normalizing the respective HBV mRNA transcript levels to GAPDH mRNA for each sample. Briefly, 100 ng of total RNA is used to synthesize cDNA using High Capacity cDNA Reverse Transcription Kit (Life Technologies, Carlsbad, Calif.) according to manufacturer instructions. Quantitative PCR amplifications of regions within HBV antigens HBsAg, HBcAg, HbxAg, and GAPDH is then performed using Power SYBR Green PCR Master Mix (Life Technologies) and the primer sets listed in Table 1. Standard real-time PCR conditions are used: initial denaturation at 95° C. for 10 min followed by 40 cycles of 95° C. for 15 sec and 60° C. for 1 min. […]
Levels of inhibition of HBV transcripts at regions corresponding to HBV antigens HBsAg, HBcAg and HbxAg, relative to levels of GAPDH mRNA, were determined according to the method described in Example 5.
Levels of inhibition of HBV transcripts at regions corresponding to HBV antigens HBsAg, HBcAg and HbxAg, relative to levels of GAPDH mRNA, for each shmiR of the disclosure (expressed individually, or as part of a triple construct), was determined at an MOI of 100 at 3, 4, 5 and 6 days after infection with HBV shmir or shRNA AdV vectors.

[3] = system: HepG2.2.15 cells; assay: RNAi effector molecules (copies per cell) in HepG2.2.15 cells transduced with AdV vectors; assay type: cell-based, human; settings: HepG2.2.15, AdV vectors MOI 100, days 3-6; versus corresponding shRNA; FIG. 3
Experimental: Single and triple shmiR or shRNA AdV vectors were prepared by subcloning the ddRNAi expression constructs described in Example 1 (i.e., ddRNAi constructs designated HBV-shmiR1 to HBV-shmiR16, HBV-shRNA1-HBV-shRNA16, HBV-shmiRx3-v1, HBV-shmiRx3-v2 and HBV-shRNAx3-v1) into a adenovirus (AdV) construct for virus production (Vector Biolabs, Malvern Pa.).
HepG2.2.15 cells were infected with the HBV shmiR AdV vectors or HBV shRNA AdV vectors in cell suspension and cultured on multi-well plates. Each well contained a suspension of approximately 1.25×10^5 HepG2.2.15 cells and one of the single or triple HBV shmiR AdV vectors, or one of the single or triple HBV shRNA AdV vectors, at MOI-100. Following transduction, cells were cultured at 37° C. at 5% CO2 for 3-7 days and harvested for total RNA isolation using Qiagen miRNeasy mini kit (Valencia, Calif.) at 3, 4, 5, and 6 days post-transfection.
Total RNAs were quantified using the NanoDrop 1000 Spectrophotometer (Thermo Scientific) and then diluted to a working concentration of 10 ng/μl.
RNAi effector molecules expressed as copies per cell were determined for shmiR-12 and shmiR-15 (FIGS. 3A and 3B, respectively) when expressed in HepG2.2.15 cells from single or triple HBV shmiR AdV vector(s) using Qiagen's miScript PCR system (designed to quantitate RNA effector molecules processed from shmiR or shRNA). […]

Molecule | activity of constructs in luciferase reporter assay [1] | antisense (effector) strand activity (strand preference activity) [1] | silencing of HBV RNAs (HBsAg, HBcAg, HbxAg regions) [2] | levels of effector RNAi molecule (copies per cell) [3]
B1 | more effective than the corresponding shRNA constructs | higher antisense (effector) strand activity relative to the corresponding shRNAs | – | –
B2 | more effective than the corresponding shRNA constructs | higher antisense (effector) strand activity relative to the corresponding shRNAs | greater silencing of HBV RNAs compared to the corresponding shRNA expressing constructs | higher than the corresponding shRNAs
B3 | more effective than the corresponding shRNA constructs | higher antisense (effector) strand activity relative to the corresponding shRNAs | greater silencing of HBV RNAs compared to the corresponding shRNA expressing constructs | higher than the corresponding shRNAs
